Consider two proteins from publication PMC7203116, “Cryo-electron microscopy reveals two distinct type IV pili assembled by the same bacterium” (Nature Communications, 2020).

The data set concerns the molecule itself. Briefly: cryo-EM structure; single-particle cryoEM and helical reconstruction (SPRING) of pili isolated from T. thermophilus HB27; wide and narrow filaments boxed separately from the same micrographs; atomic models built de novo.

B1: PilA4, major pilin of Thermus thermophilus HB27 (subunit of the wide type IV pilus) (natural protein, UniProt Q72JC0 7-131, looked up)
chain: FTLIELLIVIAIIAILAAVLIPNLLAARKRANDTVVTAYLNDAVKFQEMYQIDNNSYTSNQAALISLGLKSTPANVTFSIVSASANSYCMIAGHSGGTVWFAATPDKGVYKTNTAVTSSQPESCP
modifications: extra densities attributed to O-linked glycans at Ser59, Ser66 and Ser71; disulphide bond Cys89-Cys124
notes: PilA4, major type IV pilin of Thermus thermophilus HB27; mature pilin of 125 amino acids (Phe1 to Pro125) after cleavage of the class III signal peptide; all residues of the mature protein are in the model PDB 6XXD. numbers count on: the mature protein; Assembled as a helical filament (wide pilus; rise 9.33 Å, twist 92.5°); the deposited model holds 16 identical subunits; also called wide pilus …
For B1, the binding result was “binds”.

B2: PilA5 (TT_C1836), pilin of Thermus thermophilus HB27 (subunit of the narrow type IV pilus) (natural protein, UniProt Q72GL2 6-116, looked up)
chain: FTLIELAIVIVIIGILVAIAVPRFVDLTDQANQANVDATAAAVRSAYAIATVQAKGIPTCDQVFANPEGGSTSGSTWTSSDNSTTVSCNASADTFTISRGGKTRTLNLTVN
modifications: extra density attributed to an O-linked glycan at Ser73; disulphide bond Cys60-Cys88
notes: 111 amino acids; all residues of the mature protein are in the model PDB 6XXE. numbers count on: the mature protein; Assembled as a helical filament (narrow pilus; rise 11.26 Å, twist 84.3°); the deposited model holds 16 identical subunits; also called Tt17; narrow pilus subunit; source: endogenous, pili isolated from T. thermophilus HB27 cells (ethanolamine buffer pH 10.5, ammonium sulfate …)
Turning to B2, the binding result is given as “binds”.
